Data from publication PMC9543391, “ERp57 chaperon protein protects neuronal cells from Aβ‐induced toxicity” (Journal of Neurochemistry, 2022).

Biological target: ERp57 (human recombinant PDIA3) (human) (UniProt P30101)
Test: SPR; ERp57 immobilised by amine coupling on a COOH5 sensorchip (about 4000 RU), SensiQ Pioneer; non-aggregated Aβ25-35 injected for 240 s at 30 μl/min at 15.6 μM to 1.0 mM; 25°C; HBSP buffer (20 mM HEPES pH 7.4, 150 mM NaCl, 0.005% Tween-20); global kinetic fits with one or two binding sites (Qdat 4.0)

Chain of ERp57 (human recombinant PDIA3) (human) (P30101 25-505): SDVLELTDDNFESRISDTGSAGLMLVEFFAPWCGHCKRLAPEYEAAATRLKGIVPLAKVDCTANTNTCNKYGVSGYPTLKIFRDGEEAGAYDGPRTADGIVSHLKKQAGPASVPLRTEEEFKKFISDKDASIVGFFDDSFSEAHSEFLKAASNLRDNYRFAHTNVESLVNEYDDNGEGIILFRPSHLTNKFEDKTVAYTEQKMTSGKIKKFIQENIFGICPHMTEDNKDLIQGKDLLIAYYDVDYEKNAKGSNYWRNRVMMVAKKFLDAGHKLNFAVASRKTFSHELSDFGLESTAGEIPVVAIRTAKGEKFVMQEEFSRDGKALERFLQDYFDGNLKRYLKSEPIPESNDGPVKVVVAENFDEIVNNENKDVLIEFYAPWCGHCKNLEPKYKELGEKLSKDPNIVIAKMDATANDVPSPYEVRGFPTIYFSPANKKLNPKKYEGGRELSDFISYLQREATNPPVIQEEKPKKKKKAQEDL

- KD1 (fit with two binding sites, high-affinity site): 34 µM
- KD2 (fit with two binding sites, low-affinity site): 3.3 mM
Substance: Amyloid beta peptide fragment 25-35 (Aβ25-35)
